# T1: CsrD^ΔHAMP (MBP-tagged CsrD residues 192–646) (E. coli, UniProt P13518 192-646)
# T1 sequence (looked up): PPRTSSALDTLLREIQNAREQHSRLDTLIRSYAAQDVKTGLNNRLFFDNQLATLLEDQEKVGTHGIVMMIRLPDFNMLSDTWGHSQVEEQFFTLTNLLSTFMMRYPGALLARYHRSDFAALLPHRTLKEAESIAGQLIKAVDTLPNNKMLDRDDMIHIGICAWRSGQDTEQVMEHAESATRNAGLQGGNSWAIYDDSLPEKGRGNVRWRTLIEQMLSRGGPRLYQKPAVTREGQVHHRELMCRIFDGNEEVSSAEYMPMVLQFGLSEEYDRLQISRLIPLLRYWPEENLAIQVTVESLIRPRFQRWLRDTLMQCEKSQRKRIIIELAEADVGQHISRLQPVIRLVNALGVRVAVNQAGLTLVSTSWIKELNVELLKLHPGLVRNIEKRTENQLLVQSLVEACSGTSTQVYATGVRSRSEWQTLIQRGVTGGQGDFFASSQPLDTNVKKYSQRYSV
# B1: CsrD^ΔGGDEF (MBP-tagged CsrD residues 156–223 and 393–646) (domain or fragment, E. coli, UniProt P13518 156-223, looked up)
# chain: RWLQRQLAGQELLETRATRILNGERGSNVLGTIYEWPPRTSSALDTLLREIQNAREQHSRLDTLIRSYGRGNVRWRTLIEQMLSRGGPRLYQKPAVTREGQVHHRELMCRIFDGNEEVSSAEYMPMVLQFGLSEEYDRLQISRLIPLLRYWPEENLAIQVTVESLIRPRFQRWLRDTLMQCEKSQRKRIIIELAEADVGQHISRLQPVIRLVNALGVRVAVNQAGLTLVSTSWIKELNVELLKLHPGLVRNIEKRTENQLLVQSLVEACSGTSTQVYATGVRSRSEWQTLIQRGVTGGQGDFFASSQPLDTNVKKYSQRYSV
# B2: EAL (MBP-tagged EAL domain of CsrD, residues 393–646) (domain or fragment, E. coli, UniProt P13518 393-646, looked up)
# chain: GRGNVRWRTLIEQMLSRGGPRLYQKPAVTREGQVHHRELMCRIFDGNEEVSSAEYMPMVLQFGLSEEYDRLQISRLIPLLRYWPEENLAIQVTVESLIRPRFQRWLRDTLMQCEKSQRKRIIIELAEADVGQHISRLQPVIRLVNALGVRVAVNQAGLTLVSTSWIKELNVELLKLHPGLVRNIEKRTENQLLVQSLVEACSGTSTQVYATGVRSRSEWQTLIQRGVTGGQGDFFASSQPLDTNVKKYSQRYSV
# B3: CsrD^ΔTM (MBP-tagged CsrD residues 156–646, transmembrane domains replaced with MBP) (domain or fragment, E. coli, UniProt P13518 156-646, looked up)
# chain: RWLQRQLAGQELLETRATRILNGERGSNVLGTIYEWPPRTSSALDTLLREIQNAREQHSRLDTLIRSYAAQDVKTGLNNRLFFDNQLATLLEDQEKVGTHGIVMMIRLPDFNMLSDTWGHSQVEEQFFTLTNLLSTFMMRYPGALLARYHRSDFAALLPHRTLKEAESIAGQLIKAVDTLPNNKMLDRDDMIHIGICAWRSGQDTEQVMEHAESATRNAGLQGGNSWAIYDDSLPEKGRGNVRWRTLIEQMLSRGGPRLYQKPAVTREGQVHHRELMCRIFDGNEEVSSAEYMPMVLQFGLSEEYDRLQISRLIPLLRYWPEENLAIQVTVESLIRPRFQRWLRDTLMQCEKSQRKRIIIELAEADVGQHISRLQPVIRLVNALGVRVAVNQAGLTLVSTSWIKELNVELLKLHPGLVRNIEKRTENQLLVQSLVEACSGTSTQVYATGVRSRSEWQTLIQRGVTGGQGDFFASSQPLDTNVKKYSQRYSV
# B4: CsrD^ΔEAL (MBP-tagged CsrD residues 156–385) (domain or fragment, E. coli, UniProt P13518 156-385, looked up)
# chain: RWLQRQLAGQELLETRATRILNGERGSNVLGTIYEWPPRTSSALDTLLREIQNAREQHSRLDTLIRSYAAQDVKTGLNNRLFFDNQLATLLEDQEKVGTHGIVMMIRLPDFNMLSDTWGHSQVEEQFFTLTNLLSTFMMRYPGALLARYHRSDFAALLPHRTLKEAESIAGQLIKAVDTLPNNKMLDRDDMIHIGICAWRSGQDTEQVMEHAESATRNAGLQGGNSWAIY
# B5: His-tagged EIIA^Glc (enzyme IIA^Glc of the glucose-specific PTS), unphosphorylated (natural protein, E. coli, UniProt P69783 1-169, looked up)
# chain: MGLFDKLKSLVSDDKKDTGTIEIIAPLSGEIVNIEDVPDVVFAEKIVGDGIAIKPTGNKMVAPVDGTIGKIFETNHAFSIESDSGVELFVHFGIDTVELKGEGFKRIAEEGQRVKVGDTVIEFDLPLLEEKAKSTLTPVVISNMDEIKELIKLSGSVTVGETPVIRIKK
# Legend:
# SEC = biological target: the molecule itself; experiment: SEC
# [1] = biological target: B5; experiment: pull-down
# [2] = biological target: B5; experiment: SEC
# [3] = biological target: T1, CsrD^ΔHAMP (MBP-tagged CsrD residues …); experiment: pull-down
# [4] = biological target: B2; experiment: pull-down
binder,measurement,setting,value
B1,stoichiometry N,SEC,4
same,binding result,[1],binds
B2,stoichiometry N,[2],1 EAL per EIIA^Glc
B3,stoichiometry N,SEC,4
B4,stoichiometry N,SEC,4
B5,binding result,[3],binds
same,binding result,[4],binds
